Data taken from US20250109201A1 (AGENUS, published 2025).
Changes are numbered by the printed parent chain.

B1: BA212 (antibody, human IgG1, kappa, N297A, V domains shown)
VH: QVQLVQSGAEVKKPGASVKVSCKASGYTFNRYYMHWVRQAPGQGLEWMGWINPYTGGTNYAQKFQGRVTMTRDTSISTAYMELSRLRSDDTAVYYCASKQPSSDYWGQGTLVTVSS
VL: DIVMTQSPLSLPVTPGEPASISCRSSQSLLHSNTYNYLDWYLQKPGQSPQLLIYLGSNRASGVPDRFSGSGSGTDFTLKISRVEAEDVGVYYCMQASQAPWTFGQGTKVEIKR
B2: BA216 (antibody, human IgG1, kappa, N297A, V domains shown)
VH: B1 VH
VL: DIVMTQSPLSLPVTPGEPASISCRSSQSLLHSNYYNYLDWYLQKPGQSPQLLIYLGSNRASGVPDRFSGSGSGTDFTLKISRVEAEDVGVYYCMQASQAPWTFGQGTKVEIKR
B3: BA213 (antibody, human IgG1, kappa, N297A, V domains shown)
VH: B1 VH
VL: not shown
B4: BA217 (antibody, human IgG2, kappa)
heavy: QVQLVQSGAEVKKPGASVKVSCKASGYTFNRYYMHWVRQAPGQGLEWMGWINPYTGGTNYAQKFQGRVTMTRDTSISTAYMELSRLRSDDTAVYYCASKQPSSDYWGQGTLVTVSSASTKGPSVFPLAPCSRSTSESTAALGCLVKDYFPEPVTVSWNSGALTSGVHTFPAVLQSSGLYSLSSVVTVPSSNFGTQTYTCNVDHKPSNTKVDKTVERKCCVECPPCPAPPVAGPSVFLFPPKPKDTLMISRTPEVTCVVVDVSHEDPEVQFNWYVDGVEVHNAKTKPREEQFNSTFRVVSVLTVVHQDWLNGKEYKCKVSNKGLPAPIEKTISKTKGQPREPQVYTLPPSREEMTKNQVSLTCLVKGFYPSDIAVEWESNGQPENNYKTTPPMLDSDGSFFLYSKLTVDKSRWQQGNVFSCSVMHEALHNHYTQKSLSLSPGK
light: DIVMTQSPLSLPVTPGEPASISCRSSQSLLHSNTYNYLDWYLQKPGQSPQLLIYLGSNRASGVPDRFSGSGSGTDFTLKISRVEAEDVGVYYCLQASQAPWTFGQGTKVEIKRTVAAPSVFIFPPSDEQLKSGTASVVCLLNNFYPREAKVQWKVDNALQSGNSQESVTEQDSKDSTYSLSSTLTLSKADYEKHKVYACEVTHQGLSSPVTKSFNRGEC
B5: BA219 (antibody, human IgG2, kappa)
heavy: B4 heavy with C130S
light: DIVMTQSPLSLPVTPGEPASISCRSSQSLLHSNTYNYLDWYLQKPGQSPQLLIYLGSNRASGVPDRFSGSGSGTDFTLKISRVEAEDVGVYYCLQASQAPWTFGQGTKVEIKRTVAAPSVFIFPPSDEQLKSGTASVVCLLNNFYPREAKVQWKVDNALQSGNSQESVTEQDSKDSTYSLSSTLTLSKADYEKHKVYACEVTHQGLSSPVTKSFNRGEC
B6: BA246 (antibody, human IgG2, kappa)
heavy: B4 heavy
light: not shown
B7: BA247 (antibody, human IgG2, kappa)
heavy: B4 heavy with C130S
light: not shown
B8: BA218 (antibody, human IgG2, kappa)
heavy: B4 heavy
light: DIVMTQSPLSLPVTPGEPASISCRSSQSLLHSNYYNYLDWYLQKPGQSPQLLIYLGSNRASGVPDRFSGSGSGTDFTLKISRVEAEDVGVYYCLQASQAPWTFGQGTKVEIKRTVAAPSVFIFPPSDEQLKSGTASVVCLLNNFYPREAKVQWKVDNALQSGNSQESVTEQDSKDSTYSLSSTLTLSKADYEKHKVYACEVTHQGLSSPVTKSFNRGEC
B9: BA220 (antibody, human IgG2, kappa)
heavy: B4 heavy with C130S
light: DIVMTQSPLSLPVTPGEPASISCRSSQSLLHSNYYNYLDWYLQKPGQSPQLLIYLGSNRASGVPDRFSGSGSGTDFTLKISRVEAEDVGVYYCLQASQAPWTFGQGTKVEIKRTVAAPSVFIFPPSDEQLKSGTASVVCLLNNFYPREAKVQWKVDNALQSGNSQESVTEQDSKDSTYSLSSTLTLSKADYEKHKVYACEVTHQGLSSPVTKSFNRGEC

Target: T1, ECD-His tagged human ILT2 haplotype PE02 (human, UniProt Q8NHL6 24-458)
T1 construct: also called Human ILT2 PE02 ECD; not shown: His tag
Assay: SPR, captured antibody, ILT2 ECD-His analyte
Experimental: (§1) The binding affinity of anti-ILT2 antibody variants with IgG1 N297A constant regions to ECD-His tagged human ILT2 haplotypes PE01, PE02, PE03 (see Table 1) was assessed by surface plasmon resonance (SPR).
(§2) Briefly, SPR experiments were performed using a Biacore T200 instrument, and the association rate (Kₐ), dissociation rate (Kd), and dissociation constant (KD) were calculated from each experiment using a 1:1 binding model with Biacore™ T200 Evaluation Software. Capture of antibodies from the Human Fab Capture kit (28958325, GE Healthcare) to the Series S CM5 sensor chip (29149603, GE Healthcare) was performed using the immobilization wizard for amine coupling from the Biacore™ control panel and following the manufacturer's recommendations included with the kit.
(§3) Approximately 3 μg/mL of tested anti-ILT2 antibodies and controls diluted in a running buffer (10 mM HEPES, 150 mM NaCl, 3 mM EDTA, and 0.05% surfactant P20) were captured in individual flow cells of previously prepared anti Human Fab CM5 chip, keeping a single flow cell as a reference. Antibodies were captured using a 30 sec injection at a flow rate of 10 μL/min to reach about 150 resonance units (Rus). Human ILT2 ECD PE01 (diluted in the running buffer at the concentration of 30, 10, 3.3, 1.11, 0.37, 0.12 nM), and human ILT2 ECD PE02 and PE03 (diluted in the running buffer at the concentration of 33.3, 11.1, 3.7, 1.2, 0.41, 0.14 nM), were flowed over the chip surface at a flow rate of 30 μL/min with a 3-min association phase and a 10-min dissociation phase. The sensor chip was regenerated between cycles with a double 30-sec injection of 10 mM glycine, pH 2.1 at 30 μL/min followed by stabilization period of 60s. Sensorgrams were evaluated and fit to a simple Langmuir 1:1 interaction model using the global data analysis option of BIAevaluation 3.1 software. Data quality was verified by visually inspecting deviations and curve fitting, and by evaluating the parameters of Rₘₐₓ, Chi2, and Tc.

T1 sequence (Q8NHL6 other isoform, or with tags, fused parts or gaps): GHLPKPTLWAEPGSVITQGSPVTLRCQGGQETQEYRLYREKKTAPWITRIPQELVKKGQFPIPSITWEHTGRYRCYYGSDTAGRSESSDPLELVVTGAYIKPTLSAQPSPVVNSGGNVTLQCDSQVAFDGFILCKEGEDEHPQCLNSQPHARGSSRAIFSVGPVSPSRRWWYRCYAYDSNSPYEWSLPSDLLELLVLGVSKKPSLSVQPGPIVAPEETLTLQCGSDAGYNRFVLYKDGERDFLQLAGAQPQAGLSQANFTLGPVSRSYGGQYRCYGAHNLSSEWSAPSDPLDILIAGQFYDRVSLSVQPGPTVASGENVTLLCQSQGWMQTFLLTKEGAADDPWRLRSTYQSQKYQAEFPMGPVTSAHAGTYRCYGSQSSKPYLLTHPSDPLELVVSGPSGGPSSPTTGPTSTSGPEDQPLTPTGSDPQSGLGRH

Row | Kd [nM] | koff [s⁻¹] | kon [M⁻¹ s⁻¹] | Binder
1 | 0.783 | 0.00021 | 270000 | B1
2 | 0.617 | 0.00014 | 230000 | B2
3 | 0.63 | 0.00015 | 230000 | B3

Target: T2, ECD-His tagged human ILT2 haplotype PE01 (human, UniProt Q8NHL6 24-458)
T2 construct: also called Human ILT2 PE01 ECD; LILRB1/ILT2 PE01; not shown: His tag
Assay: SPR, captured antibody, ILT2 ECD-His analyte
Experimental: as §1, §2, §3

T2 sequence (Q8NHL6 24-458): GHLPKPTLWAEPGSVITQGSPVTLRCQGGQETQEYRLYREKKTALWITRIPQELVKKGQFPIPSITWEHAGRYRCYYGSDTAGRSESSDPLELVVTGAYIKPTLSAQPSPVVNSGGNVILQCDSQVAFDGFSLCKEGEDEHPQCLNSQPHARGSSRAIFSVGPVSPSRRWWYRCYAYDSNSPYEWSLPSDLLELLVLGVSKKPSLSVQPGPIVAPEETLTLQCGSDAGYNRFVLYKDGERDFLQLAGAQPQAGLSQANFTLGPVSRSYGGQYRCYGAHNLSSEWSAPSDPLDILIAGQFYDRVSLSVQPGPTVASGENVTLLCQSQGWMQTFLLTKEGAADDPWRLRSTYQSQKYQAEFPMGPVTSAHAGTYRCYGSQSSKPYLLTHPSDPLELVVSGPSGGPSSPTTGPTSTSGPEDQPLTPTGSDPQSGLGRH

Row | Kd [nM] | koff [s⁻¹] | kon [M⁻¹ s⁻¹] | Binder
4 | 0.089 | 3.3e-06 | 37000 | B1
5 | 0.185 | 6.7e-05 | 360000 | B2
6 | 0.033 | 1.1e-05 | 320000 | B3

Target: T3, ECD-His tagged human ILT2 haplotype PE03 (human, UniProt Q8NHL6 24-458)
T3 construct: also called Human ILT2 PE03 ECD (Sino biological, 16014-H08H); not shown: His tag
Assay: SPR, captured antibody, ILT2 ECD-His analyte
Experimental: as §1, §2, §3

T3 sequence (Q8NHL6 other isoform, or with tags, fused parts or gaps): as the sequence (Q8NHL6 24-458) above, with L45P, I119T, S132I counted along it

Row | Kd [nM] | koff [s⁻¹] | kon [M⁻¹ s⁻¹] | Binder
7 | 0.875 | 0.0004 | 460000 | B1
8 | 0.317 | 8.5e-05 | 270000 | B2
9 | 0.149 | 7.5e-05 | 500000 | B3

Target: T2, ECD-His tagged human ILT2 haplotype PE01
Assay: SPR, ILT2 PE01 ECD-His, average of two measurements
Experimental: as §2
Variants of irrelevant antibody VRC01 (with IgG1, IgG1 N297A, IgG4 S228P, IgG2, or IgG2 C127S constant regions) were used as negative isotype controls. The binding kinetics are shown in Table 5 as an average from two independent measurements.

Row | Kd [nM] | koff [s⁻¹] | kon [M⁻¹ s⁻¹] | Binder
10 | 0.17 | 5.4e-05 | 340000 | B4
11 | 0.14 | 4.8e-05 | 350000 | B5
12 | 0.23 | 7.4e-05 | 330000 | B6
13 | 0.31 | 9.7e-05 | 330000 | B7
14 | 0.19 | 7e-05 | 390000 | B8
15 | 0.14 | 5.7e-05 | 420000 | B9

Target: T4, full-length ILT2 expressed on Jurkat cells (human, UniProt Q8NHL6 24-650)
T4 construct: whole, on cells; The Jurkat line also carries FcgRIIIa and an NFAT-luciferase reporter (Promega/G7102); also called Jurkat cells expressing human ILT2; ILT2-expressing Jurkat reporter cells
Assay: flow cytometry, Jurkat cells expressing human ILT2

T4 sequence (Q8NHL6 24-650): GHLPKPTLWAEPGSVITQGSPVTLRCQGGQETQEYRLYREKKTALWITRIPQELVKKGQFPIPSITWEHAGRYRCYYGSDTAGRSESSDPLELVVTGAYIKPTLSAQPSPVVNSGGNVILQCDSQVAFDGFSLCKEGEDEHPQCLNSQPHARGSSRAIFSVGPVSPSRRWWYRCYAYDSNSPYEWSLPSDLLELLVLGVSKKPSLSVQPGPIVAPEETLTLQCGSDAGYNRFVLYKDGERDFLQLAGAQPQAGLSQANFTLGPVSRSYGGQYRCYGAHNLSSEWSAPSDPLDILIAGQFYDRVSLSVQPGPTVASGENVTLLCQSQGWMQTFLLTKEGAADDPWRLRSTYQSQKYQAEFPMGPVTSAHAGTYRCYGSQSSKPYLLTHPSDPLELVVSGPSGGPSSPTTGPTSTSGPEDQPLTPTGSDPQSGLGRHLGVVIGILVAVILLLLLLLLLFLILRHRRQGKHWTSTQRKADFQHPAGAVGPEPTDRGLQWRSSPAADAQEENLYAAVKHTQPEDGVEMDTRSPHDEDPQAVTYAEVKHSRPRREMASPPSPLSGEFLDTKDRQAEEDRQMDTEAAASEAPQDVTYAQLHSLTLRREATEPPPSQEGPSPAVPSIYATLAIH

Row | AUC | EC50 [µg/mL] | Binder
16 | 222000 | 0.057 | B1
17 | 199000 | 0.07 | B2
18 | 189000 | 0.11 | B3

Target: T5, human ILT2 extracellular and transmembrane domains expressed on CHO cells (human, UniProt Q8NHL6 24-482, limits assumed)
T5 construct: domain: extracellular and transmembrane domains; which one is told under assay; also called CHO cells expressing human ILT2 (relatively low or relatively high level); CHO-ILT2 cells
Assay: flow cytometry, CHO cells with low human ILT2
Experimental: For the antibody binding assay, the cells were seeded in a 96-well U-bottom tissue culture plate at a density of 3×10⁵ cells per well in 25 μL of PBS supplemented with 0.5% BSA, 1 mM EDTA and 0.05% sodium azide (FACS Buffer). The cells were incubated for 30 minutes at 4° C. with 25 μL of a series dilution of anti-ILT2 antibodies or isotype control, at final concentrations ranging from 10 μg/mL to 0.2 ng/mL in FACS Buffer.
After a 30-minute incubation in the dark at 4° C., the cells were washed twice with cold FACS Buffer, and the cells were analyzed by flow cytometry (BD LSR Fortessa Flow Cytometer). CHO cells were identified using a plot of forward scatter-area (FSC-A) versus side scatter area (SSC-A) and another plot of FSC-A versus forward scatter-height (FSC-H) for selection of single cells. Samples were analyzed by sequentially gating on the single cell population and plotting histograms representing the fluorescence in the PE channel. For each sample, mean fluorescence intensity (MFI) was calculated, and the data were plotted by GraphPad Prism software.

T5 sequence (Q8NHL6 24-482 limits assumed): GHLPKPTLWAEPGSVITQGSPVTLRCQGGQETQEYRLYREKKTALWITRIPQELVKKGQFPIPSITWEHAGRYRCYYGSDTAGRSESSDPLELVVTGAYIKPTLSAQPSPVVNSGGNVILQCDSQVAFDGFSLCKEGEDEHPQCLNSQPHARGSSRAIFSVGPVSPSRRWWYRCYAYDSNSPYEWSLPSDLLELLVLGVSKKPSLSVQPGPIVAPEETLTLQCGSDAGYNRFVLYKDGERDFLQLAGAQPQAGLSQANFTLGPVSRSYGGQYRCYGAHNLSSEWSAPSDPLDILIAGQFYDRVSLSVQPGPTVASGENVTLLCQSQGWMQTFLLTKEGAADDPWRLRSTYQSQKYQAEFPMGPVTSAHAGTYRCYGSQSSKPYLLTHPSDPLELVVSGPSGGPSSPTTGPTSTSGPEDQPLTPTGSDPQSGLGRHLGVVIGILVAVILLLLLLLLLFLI

Row | AUC | EC50 [µg/mL] | Binder
19 | 15100 | 0.087 | B1
20 | 14400 | 0.078 | B2
21 | 13600 | 0.175 | B3

Target: T5, human ILT2 extracellular and …
Assay: flow cytometry, CHO cells with high human ILT2
Experimental: For the antibody binding assay, the cells were seeded in a 96-well U-bottom tissue culture plate at a density of 3×10⁵ cells per well in 25 μL of PBS supplemented with 0.5% BSA, 1 mM EDTA and 0.05% sodium azide (FACS Buffer). The cells were incubated for 30 minutes at 4° C. with […] of a series dilution of anti-ILT2 antibodies or isotype control at concentrations from 10 μg/mL to 2.4 ng/mL in FACS Buffer.
After a 30-minute incubation in the dark at 4° C., the cells were washed twice with cold FACS Buffer, and the cells were analyzed by flow cytometry (BD LSR Fortessa Flow Cytometer). CHO-ILT2 cells were identified and MFI was calculated as above.

Row | AUC | EC50 [µg/mL] | Binder
22 | 264000 | 0.248 | B4
23 | 307000 | 0.183 | B5
24 | 295000 | 0.227 | B8
25 | 305000 | 0.282 | B9
